Data: PMC3971370 (Molecular plant, 2012)

Target: nCFP–CPK3 (Arabidopsis thaliana, UniProt Q42479 1-529)
Test: split reporter

nCFP–CPK3, sequence (Q42479 whole entry): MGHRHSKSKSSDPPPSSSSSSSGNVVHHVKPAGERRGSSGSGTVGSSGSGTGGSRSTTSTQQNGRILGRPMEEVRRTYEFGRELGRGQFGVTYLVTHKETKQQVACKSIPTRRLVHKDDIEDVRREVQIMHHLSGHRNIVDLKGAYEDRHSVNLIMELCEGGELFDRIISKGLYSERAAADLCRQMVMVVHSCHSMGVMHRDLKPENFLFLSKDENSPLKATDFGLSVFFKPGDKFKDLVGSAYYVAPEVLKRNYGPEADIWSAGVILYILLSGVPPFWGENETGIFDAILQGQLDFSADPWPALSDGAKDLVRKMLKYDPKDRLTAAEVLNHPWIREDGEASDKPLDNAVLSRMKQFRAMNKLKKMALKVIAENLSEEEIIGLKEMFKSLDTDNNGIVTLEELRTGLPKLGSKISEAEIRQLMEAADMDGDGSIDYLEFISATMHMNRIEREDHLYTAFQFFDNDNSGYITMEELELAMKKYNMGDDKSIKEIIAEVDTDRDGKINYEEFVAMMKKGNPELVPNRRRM

BiFC signal relative to wild-type TPK1: ~0.5 fold of wild type
B1: cCFP–TPK1–R35A/R39A (natural protein)
chain: MSSDAARTPLLPTEKIDTMAQDFNLNSRTSSSRKARLRASRSAPRGDCMYNDDVKIDEPPPHPSKIPMFSDLNPNLRRVIMFLALYLTIGTLCFYLVRDQISGHKTSGVVDALYFCIVTMTTVGYGDLVPNSSASRLLACAFVFSGMVLVGHLLSRAADYLVEKQEALLVRAFHLRQSFGPTDILKELHTNKLRYKCYATCLVLVVLFIVGTIFLVMVEKMPVISAFYCVCSTVTTLGYGDKSFNSEAGRLFAVFWILTSSICLAQFFLYVAELNTENKQRALVKWVLTRRITNNDLEAADLDEDGVVGAAEFIVYKLKEMGKIDEKDISGIMDEFEQLDYDESGTLTTSDIVLAQTTSQIQR
